Data on six sequences can be found in the supplement of paper PMC11246515.

The nature of the data set: total protein half-life in vivo (active degradation + dilution); higher = more stable protein.
Setting [1] is: E. coli NCM3722 delta-clpP delta-lon delta-hslV, growth: N-lim chemostat, doubling time 6 h.
The mark [2] stands for this setting: E. coli NCM3722 delta-clpP, growth: N-lim chemostat, doubling time 6 h.
The mark [3] stands for this setting: E. coli NCM3722 delta-hslV, growth: N-lim chemostat, doubling time 6 h.
The mark [4] stands for this setting: E. coli NCM3722 delta-lon, growth: N-lim chemostat, doubling time 6 h.
Where [5] appears, read: E. coli NCM3722 delta-smpB, growth: N-lim chemostat, doubling time 6 h.
Where [6] appears, read: wild type E. coli NCM3722, growth: C-lim chemostat, doubling time 3 h.
The mark [7] stands for this setting: wild type E. coli NCM3722, growth: C-lim chemostat, doubling time 6 h.
[8] abbreviates: wild type E. coli NCM3722, growth: C-lim chemostat, doubling time 12 h.
Where [9] appears, read: wild type E. coli NCM3722, growth: N-lim chemostat, doubling time 6 h.
[10] abbreviates: wild type E. coli NCM3722, growth: N-lim chemostat, doubling time 12 h.
[11] abbreviates: wild type E. coli NCM3722, growth: P-lim chemostat, doubling time 6 h.
[12] abbreviates: wild type E. coli NCM3722, growth: P-lim chemostat, doubling time 12 h.

± gives the standard deviation of the averaged measurements.

Turning to “MKKTTLALSALALSLGLALSPLSATAAETSSATTAQQMPSLAPMLEKVMPSVVSINVEGSTTVNTPRMPRNFQQFFGDDSPFCQEGSPFQSSPFCQGGQGGNGGGQQQKFMALGSGVIIDADKGYVVTNNHVVDNATVIKVQLSDGRKFDAKMVGKDPRSDIALIQIQNPKNLTAIKMADSDALRVGDYTVAIGNPFGLGETVTSGIVSALGRSGLNAENYENFIQTDAAINRGNSGGALVNLNGELIGINTAILAPDGGNIGIGFAIPSNMVKNLTSQMVEYGQVKRGELGIMGTELNSELAKAMKVDAQRGAFVSQVLPNSSAAKAGIKAGDVITSLNGKPISSFAALRAQVGTMPVGSKLTLGLLRDGKQVNVNLELQQSSQNQVDSSSIFNGIEGAEMSNKGKDQGVVVNNVKTGTPAAQIGLKKGDVIIGANQQAVKNIAELRKVLDSKPSVLALNIQRGDSTIYLLMQ [P0C0V0]”, the “total protein half-life in vivo” value by setting is: under setting [1], 5.66 ± 0.5 h; under setting [2], 5.71 ± 0.21 h; under setting [3], 6.05 ± 0.44 h; under setting [4], 5.85 ± 0.21 h; under setting [5], 5.87 ± 0.45 h; under setting [6], 2.97 ± 0.12 h. The “total protein half-life in vivo” value came to 5.88 ± 0.28 h under setting [7]; 10.9 ± 0.37 h under setting [8]; 5.86 ± 0.23 h under setting [9]; 11.5 ± 0.38 h under setting [10]; 5.75 ± 0.2 h under setting [11]; 11.4 ± 0.4 h under setting [12].

For “MAQEYTVEQLNHGRKVYDFMRWDYWAFGISGLLLIAAIVIMGVRGFNWGLDFTGGTVIEITLEKPAEIDVMRDALQKAGFEEPMLQNFGSSHDIMVRMPPAEGETGGQVLGSQVLKVINESTNQNAAVKRIEFVGPSVGADLAQTGAMALMAALLSILVYVGFRFEWRLAAGVVIALAHDVIITLGILSLFHIEIDLTIVASLMSVIGYSLNDSIVVSDRIRENFRKIRRGTPYEIFNVSLTQTLHRTLITSGTTLMVILMLYLFGGPVLEGFSLTMLIGVSIGTASSIYVASALALKLGMKREHMLQQKVEKEGADQPSILP [P0AG93]”, the “total protein half-life in vivo” value by setting is: under setting [3], 6.16 h; under setting [4], 5.2883 ± 0.0031 h; under setting [6], 3.4 ± 0.44 h; under setting [7], 5.67 ± 0.76 h; under setting [8], 8.4 ± 5.1 h; under setting [10], 10.2 ± 0.42 h. Under setting [11], the “total protein half-life in vivo” value was 6.06 ± 1 h.

For “MKILRWLFALVMLIATTEAMAAGHSVDVYYGYNGDSRNIATFNLKIMMPSAVYVGEYKSSQWLMTGEILQNVSWSGPPPAPSVKLIGYHQNINKASCPGLPSGWNCGYYTFEVIVSAEIESYFSCPWLVIMNDSEASPGGVTYQGPDSHDTICPSVSVQPYDVSWNENYVSKSKLLTLQSTGGVVEKTLSTYLMKDGKLCDSTQMNETGGYCRWVAQMITFTASGCDKAEVSVTPNRHPITDKQLHDMVVRVDTSSMQPIDSTCRFQYILNEL”, the “total protein half-life in vivo” value is, setting by setting: under setting [1], 4.06 ± 0.19 h; under setting [2], 4.43 h; under setting [4], 4.34 h; under setting [5], 5.02 ± 1.1 h; under setting [6], 3.03 ± 0.58 h; under setting [8], 6.01 h. Also, the “total protein half-life in vivo” value is, setting by setting: under setting [9], 4.81 h; under setting [10], > 16 h; under setting [11], 4.43 h; under setting [12], 8.64 ± 0.17 h.

For the sequence “MNIELRHLRYFVAVAEELHFGRAAARLNISQPPLSQQIQALEQQIGARLLARTNRSVLLTAAGKQFLADSRQILSMVDDAAARAERLHQGEAGELRIGFTSSAPFIRAVSDTLSLFRRDYPDVHLQTREMNTREQIAPLIEGTLDMGLLRNTALPESLEHAVIVHEPLMAMIPHDHPLANNPNVTLAELAKEPFVFFDPHVGTGLYDDILGLMRRYHLTPVITQEVGEAMTIIGLVSAGLGVSILPASFKRVQLNEMRWVPIAEEDAVSEMWLVWPKHHEQSPAARNFRIHLLNALR”, the “total protein half-life in vivo” value under setting [1] came to 6 ± 0.22 h; the “total protein half-life in vivo” value under setting [2] is 5.84 ± 0.3 h; the “total protein half-life in vivo” value under setting [3] worked out at 6.28 ± 0.17 h; the “total protein half-life in vivo” value under setting [4] was determined as 5.5 ± 0.23 h; the “total protein half-life in vivo” value under setting [5] is 5.65 ± 0.16 h; the “total protein half-life in vivo” value under setting [7] amounted to 6.3 ± 1.5 h. Besides, the “total protein half-life in vivo” value came to 11.97 ± 0.024 h under setting [8]; 6.8 ± 0.96 h under setting [9]; 12.5 ± 1.8 h under setting [10]; 5.12 ± 0.62 h under setting [11]; 13.3 ± 0.86 h under setting [12].

Consider “MSYPSLFAPLDLGFTTLKNRVLMGSMHTGLEEYPDGAERLAAFYAERARHGVALIVSGGIAPDLTGVGMEGGAMLNDASQIPHHRTITEAVHQEGGKIALQILHTGRYSYQPHLVAPSALQAPINRFVPHELSHEEILQLIDNFARCAQLAREAGYDGVEVMGSEGYLINEFLTLRTNQRSDQWGGDYRNRMRFAVEVVRAVRERVGNDFIIIYRLSMLDLVEDGGTFAETVELAQAIEAAGATIINTGIGWHEARIPTIATPVPRGAFSWVTRKLKGHVSLPLVTTNRINDPQVADDILSRGDADMVSMARPFLADAELLSKAQSGRADEINTCIGCNQACLDQIFVGKVTSCLVNPRACHETKMPILPAVQKKNLAVVGAGPAGLAFAINAAARGHQVTLFDAHSEIGGQFNIAKQIPGKEEFYETLRYYRRMIEVTGVTLKLNHTVTADQLQAFDETILASGIVPRTPPIDGIDHPKVLSYLDVLRDKAPVGNKVAIIGCGGIGFDTAMYLSQPGESTSQNIAGFCNEWGIDSSLQQAGGLSPQGMQIPRSPRQIVMLQRKASKPGQGLGKTTGWIHRTTLLSRGVKMIPGVSYQKIDDDGLHVVINGETQVLAVDNVVICAGQEPNRALAQPLIDSGKTVHLIGGCDVAMELDARRAIAQGTRLALEI”, for which the “total protein half-life in vivo” value by setting is: under setting [1], 6.33 ± 2.2 h; under setting [2], 3.52 ± 0.043 h; under setting [5], 2.74 ± 0.96 h; under setting [6], 2.93 ± 0.18 h; under setting [7], 4.94 ± 0.13 h; under setting [8], 9.61 ± 2.1 h. Also, the “total protein half-life in vivo” value by setting is: under setting [11], 5.18 ± 0.79 h; under setting [12], 10.6 ± 0.13 h.

“MSKQQIGVVGMAVMGRNLALNIESRGYTVSIFNRSREKTEEVIAENPGKKLVPYYTVKEFVESLETPRRILLMVKAGAGTDAAIDSLKPYLDKGDIIIDGGNTFFQDTIRRNRELSAEGFNFIGTGVSGGEEGALKGPSIMPGGQKEAYELVAPILTKIAAVAEDGEPCVTYIGADGAGHYVKMVHNGIEYGDMQLIAEAYSLLKGGLNLTNEELAQTFTEWNNGELSSYLIDITKDIFTKKDEDGNYLVDVILDEAANKGTGKWTSQSALDLGEPLSLITESVFARYISSLKDQRVAASKVLSGPQAQPAGDKAEFIEKVRRALYLGKIVSYAQGFSQLRAASEEYNWDLNYGEIAKIFRAGCIIRAQFLQKITDAYAENPQIANLLLAPYFKQIADDYQQALRDVVAYAVQNGIPVPTFSAAVAYYDSYRAAVLPANLIQAQRDYFGAHTYKRIDKEGVFHTEWLD”: the “total protein half-life in vivo” value is, setting by setting: under setting [1], 5.22 ± 0.18 h; under setting [2], 4.9 ± 0.45 h; under setting [3], 5 ± 0.17 h; under setting [4], 5.58 ± 0.25 h; under setting [5], 4.68 ± 0.083 h; under setting [6], 3.21 ± 0.06 h. In addition, the “total protein half-life in vivo” value runs as follows: under setting [7], 5.85 ± 0.4 h; under setting [8], 10 ± 0.24 h; under setting [9], 4.73 ± 0.23 h; under setting [10], 8.31 ± 0.24 h; under setting [11], 6.054 ± 0.042 h; under setting [12], 12.9 ± 1.8 h.
